Source: patent US20090036382A1, “TGF-Beta Modulators and Use Thereof” (Universita' Degli Studi Di Padova, priority 2006, published 2009)

Assays:
[1] = molecular target: T1, pro TGF-β1 processing (Homo sapiens, UniProt P01137); assay: Western blot of pro TGF-β1 conversion to LAP and mature TGF-β1 in transfected HEK293T cells; assay type: cell-based; settings: HEK293T cotransfected; cell extracts anti-LAP, supernatants anti-TGF-β1; FIG. 4D
T1 construct: Flag; expressed in transfected cells; host or cells: HEK293T (A6); mouse embryo fibroblasts (A8)
T1 sequence (P01137 30-390): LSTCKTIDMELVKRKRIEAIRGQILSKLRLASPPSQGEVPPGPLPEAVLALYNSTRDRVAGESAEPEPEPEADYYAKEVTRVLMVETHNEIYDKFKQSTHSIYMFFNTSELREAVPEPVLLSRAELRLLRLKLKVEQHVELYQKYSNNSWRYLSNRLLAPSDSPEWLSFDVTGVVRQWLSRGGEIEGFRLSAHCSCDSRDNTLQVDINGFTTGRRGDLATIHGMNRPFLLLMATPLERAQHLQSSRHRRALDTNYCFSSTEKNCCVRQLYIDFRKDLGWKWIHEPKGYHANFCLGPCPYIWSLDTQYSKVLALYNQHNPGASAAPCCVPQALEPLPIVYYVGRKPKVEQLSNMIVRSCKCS
From the text: • The construct for emilin 1 expression was engineered in pCS2 vector (Rupp R. A. et al., 1994, Genes Dev 8, 1311-1323) (for a physical map of the vector, see the site faculty.washington.edu/rtmoon/pcs2+.html) as described (Zanetti M. et al., 2004, Mol Cell Biol 24, 638-650); the vector used for proTGF-β expression in MEF and HEK293T cells is pCDNA3.1 (Invitrogen). Vectors containing the coding sequence for human pro TGF-β are described in Young and Murphy-Ullrich, 2004 (Young and Murphy-Ullrich, 2004, J Biol Chem 279, 38032-38039). The human pro TGF-β cDNA sequence is reported in the data bank (NP_000660; protein 000651). • The vector for Furin/SPC 1 expression is pCDNA3.1 (Invitrogen) • p15 and CAGA 12 promoter fragments are described in Jonk L. J. et al., 1998, J Biol Chem 273, 21145-21152 […]. • Constructs containing Flag sequences are described in Young G. D and Murphy-Ullrich J E, 2004, J Biol Chem 279, 38032-38039. • Constructs containing the Flag epitope (e.g. Flag-EMI-domain-GPI) were prepared as described in Chubet R G et al. Biotechniques 1996; 20(1):136-141 and detected by anti-Flag antibody (Kodak Inc.). • Constructs containing the GPI anchor were prepared as described in the Manual “Current Protocols in Cell Biology” Howard R. Petty Wayne State University, Detroit, Mich.; Juan S. Bonifacino, Mary Dasso, Joe B. Harford, Jennifer Lippincott-Schwartz, and Kenneth M. Yamada (eds.), Copyright C 2003 John Wiley & Sons, Inc. (GPI-anchor). In the construct Flag-EMI domain-GPI, the Flag sequence was inserted at the N-terminus after the signal peptide, while the GPI-anchor sequence was placed at the COOH-terminal end. • The construct emilin 1-KDEL was obtained by inserting the KDEL coding sequence described by Munro S., and Pelham, H. R., 1987, Cell 48, 899-907 upstream the emilin 1 STOP codon. • The construct containing the type II TGF-β receptor with HA epitope was described in Wrana J. L. et al., 1994, Nature 370, 341-347. • supplier of the drugs used: SP600125 (Calbiochem), SB431542 (Tocris). • Purified recombinant LAP and TGF-β1 proteins were purchased from (R&D Systems)
To verify whether emilin or its EMI domain inhibit TGF-β or its precursor, HEK293T cells were cotransfected with plasmids driving the expression of pro TGF-β1 (fused to the FLAG-domain, even though the antibody used were directed at LAP and TGF-β proteins) and emilin-1 (or EMI-domain). […] The anti-Flag antibody used was obtained from Kodak Inc; for the preparation of Flag constructs, see Younjg and Murphy-Ullrich (Young and Murphy-Ullrich, 2004).
As reported in the summary scheme above FIG. 5A, HEK293T cells were transfected with the plasmid encoding pro TGF-β1 (lane 1) and cotransfected with emilin-1 (lane 3) or treated with decanoyl-RVKR-CMK peptide (Decanoyl-Arg-Val-Lys-Arg-chloromethylketone, Alexis Corporation, Lausen, Switzerland) (lane 2) at a concentration of 100 μM. The peptide is an irreversible and competitive inhibitor of furin proprotein convertase and of other SPC family members (Proprotein Convertase); in addition, it inhibits pro-MMP2 dependent furin activation. The supernatant was then loaded on SDS-PAGE and detected by Western-blot with anti-TGF-β1 antibody. […] An increase of the precursor band in lanes 2 and 3 is […] to the decrease of TGF-β. Therefore it can be concluded that this assay detects an effect of emilin-1 on TGF-β1 processing that is similar to the effect of Furin inhibitors.

[2] = tested on: TGF-β3; assay: Experiments in Xenopus on interaction of the EMI domain with TGF-β3
[3] = tested on: mature TGF-β1; assay: CAGA12-lux luciferase reporter in HEK293T cells treated with recombinant TGF-β1; assay type: cell-based; settings: 5 ng/ml recombinant TGF-β1, expression vector 500 ng, FIG. 2B
Protocol: To verify how emilin or the EMI domain can contrast TGF-β1 activity independently from receptor binding, HEK293T cells were transfected with a construct coding luciferase placed under control of a TGF-β activated promoter: CAGA12-lux (Jonk et al., 1998) alone or in combination with a emilin1 expression vector (500 ng) as shown in FIG. 2B. After transfection, cells were treated (black bar) or not treated (white bar) with 5 ng/ml recombinant TGF-1 (lanes 1 and 2). Column bars from 3 to 6 report luciferase expression values in experiments with cells co-transfected with the expression vector for emilin1 (or EMI-domain or emilin1ΔEMI) alone (white bars) or in combination with the vector encoding pro TGF-β1 (black bars). Values show the mean±st. dev.

[4] = molecular target: T2, Furin/SPC 1 (Homo sapiens, UniProt P09958); assay: Western blot (anti-LAP) of pro TGF-β1 cleavage in HEK293T cells co-transfected with Furin/SPC 1; assay type: cell-based; settings: HEK293T cell extracts, FIG. 5B
T2 construct: expressed in transfected cells; host or cells: HEK293T
T2 sequence (P09958 108-794): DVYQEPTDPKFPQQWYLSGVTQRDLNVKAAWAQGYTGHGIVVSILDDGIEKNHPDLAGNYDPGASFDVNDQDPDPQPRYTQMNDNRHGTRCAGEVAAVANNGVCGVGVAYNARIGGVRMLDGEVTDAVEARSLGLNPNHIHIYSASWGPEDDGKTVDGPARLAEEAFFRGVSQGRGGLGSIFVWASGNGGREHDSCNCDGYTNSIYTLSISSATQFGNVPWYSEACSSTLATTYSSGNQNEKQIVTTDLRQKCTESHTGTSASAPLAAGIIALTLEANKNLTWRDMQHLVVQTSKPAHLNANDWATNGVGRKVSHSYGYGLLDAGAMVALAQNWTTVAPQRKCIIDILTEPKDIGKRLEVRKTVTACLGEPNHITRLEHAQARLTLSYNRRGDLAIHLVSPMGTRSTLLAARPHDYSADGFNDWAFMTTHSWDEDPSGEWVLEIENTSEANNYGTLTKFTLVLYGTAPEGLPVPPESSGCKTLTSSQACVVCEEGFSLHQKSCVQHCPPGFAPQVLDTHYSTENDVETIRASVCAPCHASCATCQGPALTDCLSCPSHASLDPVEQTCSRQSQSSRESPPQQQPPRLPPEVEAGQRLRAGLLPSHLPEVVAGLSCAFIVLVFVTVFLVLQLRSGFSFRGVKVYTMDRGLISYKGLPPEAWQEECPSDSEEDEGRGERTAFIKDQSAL
From the text: To further investigate the role of emilin-1 on TGF-β processing, HEK293T cells were transfected with plasmids encoding pro TGF-β1, Furin/SPC 1 and EMI-domain, as shown in the scheme above FIG. 5B. Cell extracts were loaded on SDS-PAGE and detected by Western-blot with anti-LAP antibody.

Furin-induced proteolytic cleavage product of pro TGF-β1 [4]: blocks the effect of Furin
B1: EMI domain: cysteine-rich domain of emilin-1, residues 55-131, SEQ ID NO 2; in some experiments Flag-tagged and GPI-anchored (protein)
chain: RHRNWCAYVVTRTVSCVLEDGVETYVKYQPCAWGQPQCPQSIMYRRFLRPRYRVAYKTVTDMEWRCCQGYGGDDCAE
modifications: sometimes Flag tag and GPI anchor; homo sapiens
notes: in some experiments Flag-tagged and GPI-anchored
Conversion of pro TGF-β1 to LAP and mature TGF-β1 (band intensity) [1]: inhibit the conversion of pro TGF-β1
Interaction with TGF-β3 [2]: interaction
Effect on luciferase expression induced by mature TGF-β [3]: does not antagonize mature TGF-β
